From the DeepSol protein solubility set

test: soluble on expression in E. coli; label from the status in PepcDB or PDB records

Soluble on expression in E. coli, not soluble:
MAHHHHHHMTLETTPAPTFSSKKELYDWLVKQVEALVHDMSKRFTPQANLVIGLSNTAALCFYELNRFCNPEAALEKLRVNWFGFYLFQAPGLLALGPFQGRPACTEIRVGKGVCGTVAESGESMVVQSVHEFPGHIACDSASKSEIAVPVLIENGSVVAVIDVDSTELGHFSEEDREGLERMAAVLAQHLDFPMARALAVNPALGLPGYSALAGGEKALQPHGDAEAVPQATPVTTTTTTPATVTAVTRIPFFKVEVKQPDVTTKCVGGWQFTRTNLDRIMTQDETKQLQDSLGISALPEIAFQGKTLSVSPESDREHPWLHFSVEALMCSAAEYYQTEEFKTLVNPQLRIPVSAGWESFHFEKYDPKVDWAWRNNFCGLVPDRGRLVERPRDAADAPGINWDILKDTSLLILFYGDFDMMEDDLRDHGMVTSSVKYRVMSSAFFVLFRHFVRVDNHEIWMREVRVFHEFGKTRTPSGVPHIVFLEQLRHVRIAEPVEGVDWKSMSPDAISAKATVLLSREWMLEKVATA
MAHHHHHHMVLHIYHAAVGEKEFQFSTNINKLTQETYELDVNEAIEEVSSTILEQLTGEDALCCECKAAPATRLIHHTMLFAETFPPRVEDLPQPVCNSANCEAVAKSRYLMDMEDATTAQGMPSPNGCFHCHKGARGAATVPLQRCSRCKVAKYCSVECQKADWKVHKQVCAPG
MAHHHHHHMVLLPFPPSFYVTTGTTIPFISSPPVAQSGNIYASNESKRLRVDNFFMGFQYSFVADGKLGRGFVFESIEPITTTTASGNNNNNNNNNNNNNNSSEKKSGRGGEERISCRSFALNRGLTGFGVPDEFVRHAESSLVRGVKVWRYTGYSRSGVGPLQEVDYFIRNGTFHAVPWRVQIRRRQTALKELTGSPMTLPNWRYFGGLFFDEVAVPEGPYEDKLERLMQDTTVTLDFYNFVPAEPHPSVFSVPDNCKEVSARFTGNDVDISLAQRFLVDLSLYTPVGREMLREELNSA
MAHHHHHHMVTLNSTKPQVVIEASGVPTIQTSSITSPVVLTTPLGKSMYSSYSYSNPVSSSYSSSHHNECEYNWERVSTKPSQSTQHGEYMKTFEVPTGLYYETLPLKRNTNNIFEVTPSKEELEKINYNPRIEVYSTCNFVIIMMDLPGVSKENLKVELENGVLKIFGHKYKVPLEELQTEHEYHTKIIERVGEYYFCKMFQMPPVFSDGQSISCTLRDGELTFKMLASDLRAQKRVVEVQS
MAHHHHHHMYSTTNDKSENEDLNDVIEININNIANKLANILYITNVGMKENCELKNNLHFSKFLNDMRSYCVNLIQSINNLNSNFYNLTCLPVHSIPRNPYTNILDINVITNNISVDDNADKIKEKQTLLQSFHNKYDKNKTTFHQSIKHIETFNDQLFSALNNLDHIKMSIKYQDQESSTYGNVVSERLKNKQKDHEHLELYIARVHYGLF
MAHPQEIREKLRRLYVSGEQTLETAALMCEIPQTTARAWKRADKEKGDDWDKMRAAYTLAGGGIEDLSRAMLAGFMVQYNSTMTMLQDSSTEDLPPSDRAKLLASLADAFTKTVSANARVMPETSKLATALELIEFLMAFVQEKHPKHLPAFVEVLEPFGVEVEKKFG
MAHTSRHNEFSIGASASLWECMLNQWLGRLYQNQDAHTGLQFEARIAQRQSLVKQLHERQLDLLITTEAPKMDEFSSQLLGYFTLALYTSAPSKLKGDLNYLRLEWGPDFQQHEAGLIGADEVPILTTSSAELAQQQIAMLNGCTWLPVSWARKKGGLHTVVDSTTLSRPLYAIWLQNSDKNALIRDLLKINVLDEVY
MAIEIKLETPRQEAVLRLIDLSNAYMASLYPAESNHLVDIGALEKDNVSFFVARHDGRVVGCGALVEAGDGTAEVKRMFVDPEARGLRIGKLIMDTLVARGTELGLSAIRLETGISQPEAIGLYRKEGFVEIEAFAPYKPDPLSLFMERAL
MAIGSKIIKPGGSDPDDFEKSIAQALVELEANSDLKPYLRDLHITRAREIEFGSKKAVIIYVPIPQQKVFQKIQIILVRELEKKFSGKHVVVIAERKILPKPTRKARNPLKQKRPRSRTLTAVYDAILEDLVFPAEIVGKRIRVKLDGSQLVKVHLDKNQQTTIEHKVDTFTSVYKKLTGRDVTFEFPDNYLNV
MAIIKSPVFKDISEAEISEMTSAGFLRARKFRKKAIIYHVTDIVHEIGIVASGQVTIEYIDMWGNKAIMSNIAPGQVFAETYALSGEPLMVDAVASETSVVLFLNIRKLMDSQPENVHYKDTILNNLLHISIQKNLTLSNRIFCTSPKTIRDRLLIYLSNESRKAGCEEFSIPFDRQQLADYLNVDRTALSKELGKMRDDGLIEFRKNVFHLLSIC
MAIKNAFYAQSGGVTAVINASACGVIQTARKHPDQIGKVYAGRNGIIGALKEELIDTSLESDDAIQALIHTPGGAFGSCRYKLKNISENQREYERLIEVFRAHDIGYFFYNGGGDSQDTAYKVSQLADRMGYPITCIGVPKTVDNDLPFTDCCPGFGSVAKYIATSTLEASLDIKSMCETSTKVFILEVMGRHAGWIAAAGGLAGQSEGEPPHVILFPEIPFNREKFLERVDQCVRDYGYCVVVASEGAQYEDGRFVADAGAKDAFGHTQLGGVAPALANMVKQALGHKYHWAVADYLQRAARHIASATDVEQAYAVGKAAVEMALAGKQALMPTIVRDQAKPYRWSIGEANLSEVANQEKKMPIHYITDNGFGITQDCRDYLQPLIAGESFPPFDDGLPRVAKLKNQLVEKKLRTEFELLEHHHHHH
MAILIELQDICVDFEQRRVLDNIRLTLTKGNITTLIGPNGAGKSTLVKVILGLQSLSSGKIIRQSGIRIGYVPQKLKLNDTLPLTVNRFLKLAGRFSTQELSEALRLVGGEHLQSSDMHKLSGGETQRVLLARALLQRPDLLVLDEPAQGVDVQGQIDLYDLIHTLRNRFGCAVLMVSHDLHLVMAKTDEVICLQHHVCCSGSPESIAKHPSYLAMFGHRSRDTLAFYQHHHEHHHHDLSGLPVKGKASVCSHHSHGHHKHD
MAIPDYQAVMLPLLKYAGDGKEHHIRDAIEKLAEEFELSEEERKELLPSGQQAIFKNRIGWANTYLKKAGLLGSRKKGYFSITRRGLDVLREKPPSIDVSFLKRYKEFNEFYNKDKQVLIDKPDVPEAEGKRALDPEESLEIAYQKLHNELVSEIISTTKKCSPAFFESLVVDVLTKMGYGGSRVDAGKAIGKSHDGGIDGIIKEDRLGLDVIYIQAKRWEGTVSKPEIQKFAGALIGKKAKKGVFITTSSFSKEAIEYADFTGNIVLVDGEMLARLMIEYNVGVSRVKSYEVKKMDTDYFEDGVI
MAIVDPIVTGLNAGWLHTDASQLQANQQFEADVVIVGTGAGGGVAAEILTQAGLSVIMIEAGPLKSSSDFNMEERVAYPNLYQQAAAMKTADKAIGIFQGRAVGGSTTINWTTSIRTPKEALAFWAQHKSVAGLDPEALAPWFDQMEQRLNIHEWNYEPNRNNGALKQGCINLGWDYTVIKRNVAGCWNTGYCGMGCPVNAKQSMLVTTIPSALEKGAQLISRAKVVKIEHHNGQVFALKAQALDVNLRPTAVELLFKAKHYILSAGAIHTPTLMMRSEVPDPHQLLGKRTFLHPTVLSGGVFADTINAHSGAPQSIYSDEFVWKNGADGELGYKLEVPPVHPILIASKTIGYGVSHAELMAQFNQLQVTIALIRDGYHPDSQGGQVHLTPTGFSLDYPLTDAFWRAVRRAYASMAELQFSAGALKVLPISDGMPYLSSWKEAKESIAQMDLAPLKTVVASAHVMGGCPLGEDEKLSMVNSYGQSHYLNNLSVMDGSIFPTSLGANPQLSIYGITARNATALAQKLKDGREPQLEHHHHHH
MAKEFLIELGTEELPPKQLRTLAEAFAANFAAELATADIAHEGVTWFATPRRLALKVANLAESQPDRVVEKRGPAVNVAFDADGKPTKAAEGWARGNGITVEQAERLVTDKGEWLLFKEQVQGQQTASVVVEMAAKALANLPIAKPMRWGDKETQFIRPVKTLTILFGSELIQGEILGVASARTLRGHRFMGEAEFTIESAEQYPAILEERGKVIADYATRKAMIIEGSQQAAQQLGGIADLEDALVEEVTSLVEWPVVMTAKFEEKFLKVPAEALVYTMKGDQKYFPVYDASKKLLPNFIFVSNIESKEPRHIVEGNEKVVRPRLADAEFFFNTDRKRPLVDRLPLLENAIFQQQLGTIKDKTDRITELAGYIAEQIGADVEKSKRAGLLAKCDLMTSMVFEFTDTQGVMGMHYARHDGEAEEVAVALNEQYMPRFAGDELPSRGVSAAVAMADKLDTIVGIFGIGQAPKGSDPFALRRASLGVLRILVEYGYQLDLVDLIAKAKSLFGDRLTNANVEQEVIEFMLGRFPTWYQDAGFSIDIIQAVLARNPTKPADFDQRVKAVSHFRALEEAEALAAANKRVGNILAKYDGELGEEIDLALLQEDAEKALAEAVEIMAEALEPAFATGNYQEALSKLAGLRAPVDAFFDNVMVMADDEALKKNRLTLLNKLRNLFLQIADISLLQK
MAKIDIIDNYETLLISVEEIRASLESLHAWLDKDIDWDSQCDWYDFISQHSSQIAILNLIMYRLDSLEVEHRSVIENTMKGK

Soluble on expression in E. coli, soluble:
MAHHHHHHMTTAGQSDAFTRVSLHSVTALGKCPAPFSDPIAVKVVLEVFGCPPKHSIDVKFTWKPIWDFPVDQVLDEFEVGPLATVGKHELVLHSDPPDVAKIPDPTGPTALTIAFTYRGKQFLHIGYNAVVLCEGEMPDVFEDAAMLSRQLTQCFKKETTIAWDEDHEDVEEKTVINGKDNDISDVKEKDHNGHAAYDDEAKVPEGVSPTKKKARCEGSLSQ
MAHSQVGIQLISESTEKTLAELIALCAEHNIIHNEKSPLALVQTDDRLELRKLDEPKLGAVYVDFVGGTMAHRRKFGGGRGEAVAKAVGIKGSALPTVIDATAGLGRDAFVLAAIGCQVRLVERHPVVFLLLQDGLNRAYQDEEIGEMLQQNLHLLNVQHINELDPNSDYADVVYLDPMYPHKQKSALVKKEMRVFQHLVGADLDADELLLPALQLAKKRVVVKRPDYAEFLCGKQPHFSHETKNHRFDIYMGASQC
MAIIEEIFEDEEDQITKVDSLKKEGNNFFANGEFEKANEKYQEAIASCPPTSTEVQSILLSNSAAALIKLRKWESAVEAASKSIEIGATNEKALERRAFAYSNMSEKYENSIEDYKQLQESLPKRRVELDRKIAEINEKINNRNEAMKADVMEKLKGFGNFCLSPFGLSTDSFEMVPNGNGGFSVQMKGATNKQEGASQEKKEEENA
MAKARRRRVRDTWKEKKWYVIKSPKLFGENEIGTTPSRDPDFLLKRRVEATMRELTGDFSKQYVKLKFQIDSVAGSEATTRFIGHQVTTDYVRSMIRRGTSRVDAPVIVETKDGYKLKVHPLAITIRRAKSSQQKYMRQSIEEHLREIASEKTFEELVEGIVTGKIASEIYHQAKKIYPLKRVEIIKSRVLEEPALEHHHHHH
MAKGASISGFPEWLPSERVVEQRVIDTLRNVFELNGFIGIETRAVEQGSSLLKKGETSKEIYLLSRLQEVGHESDTPIEDRLGLHFDLTVPLSRYVVEHSGDLAFPFKRWQIQKVWRGERPQEGRFREFVQADIDVIGNGDLPDHYEVELPLVMVSALERLREFGLPKATVHANNRKLSEGFYRGLGLTDIEGVLREIDKLDKIGADEVAKLLVEGCGADEAQARACLELAELTAADGKELSDKFDALCAKHDIASDSDAYVLARQGLDTLAMIVDEAARIRPGSVIADLKIARGLDYYTGSVYETFLDGAAALGSICSGGRYDNLASQGNKKYPGVGLSIGLSRLVSYMLHTAGAHANRVSPASVLVAVWNEADRSASNLIANQLRSRGIAADVAPTAAKLGKQIKYADKLGIPYVWFPADASEEGAQDEVKNIITGDQRPADAQSWEPDTVYAQQTVTVEA
